# From patent publication US20070213253A1, “Synuclein Mutant Having Aggregation-Inhibitory Activity” (priority 2003, published 2007)
# Target: T1, wild type α-synuclein (Homo sapiens, UniProt P37840)
# T1 construct: made in house; host or cells: Escherichia coli (pTYB1/α-syn; strain ER2566 is named for the mutants)
# Test: Inhibition of fibril formation of wild type α-synuclein by partial structure peptide, TfT fluorescence
# Assay type: biochemical
# Conditions: peptide 0.2 mg/ml in 2 mg/ml wild type α-synuclein, 37° C.
# Method: A synthetic α-synuclein partial structure peptide consisting of 10 amino acid residues of NH2-[…]COOH was dissolved at 0.2 mg/ml in a 2 mg/ml solution of purified wild type α-synuclein, and incubated at 37° C. Aliquot of 10 μl was collected in predetermined intervals. To the collected sample was added a buffer solution of 10 mM Tris-HCl, pH 7.4, containing a fluorescent dye thioflavine T (TfT), which specifically binds to a fibril structure, in a final concentration of 25 μM to make a volume of 100 μl, and fluorescence spectrum was monitored immediately (Ex 440 nm; Em 450-550 nm). The fibril formation rate and the amount thereof were determined from the increase in the fluorescence intensity of TfT.
substance,measurement,value
"NH2-Val-Gly-Gly-Ala-Thr-Thr-Thr-Gly-Val-Thr-COOH (H-VGGATTTGVT-OH) [α-synuclein partial structure peptide, synthetic α-synuclein partial structure peptide consisting of 10 amino acid residues]",decrease of the fibril formation ability of the wild type α-synuclein (to the extent of),about 20%
